Substrate: gfPET
Experiment: Proxy for plastic degradation [Relative activity]
Conditions: pH 8

| Protein | Proxy for plastic degradation |
| --- | --- |
| unnamed (protein) MANPYERGPDPTESSIEAVRGPFAVAQTTVSRLQADGFGGGTIYYPTDTSQGTFGAVAISPGFTAGQESIAWLGPRIASQGFVVITIDTITRLDQPDSRGRQLQAALDHLRTNSVVRNRIDPNRMAVMGHSMGGGGALSAAANNTSLEAAIPLQGWHTRKNWSSVRTPTLVVGAQLDTIAPVSSHSEAFYNSLPSDLDKAYMELRGASHMVSNTPDTTTAKYSIAWLKRFVDDDLRYEQFLCPAPDDFAISEYRSTCPF | 74% |
| unnamed (protein) MANPYERGPDPTESSIEAVRGPFAVAQTTVSRLQADGFGGGTIYYPTDTSQGTFGAVAISPGFTAGQESIAWLGPRIASQGFVVITIDTITRLDQPDSRGRQLQAALDHLRTNSVVRNRIDPNRMAVMGHSMGGGGALSAAANNTSLEAAIPLQGWHTRKNWSSVRTPTLVVGAQLDTIAPVSSHSEAFYNSLPSDLDKAYMELRGASHTVSNTPDTTTAKYSIAWLKRFVDDDLRYEQFLCPAPDDFAISEYRSTCPF | 48% |
| unnamed (protein) MANPYERGPDPTESSIEAVRGPFAVAQTTVSRLQADGFGGGTIYYPTDTSQGTFGAVAISPGATAGQESIAWLGPRIASQGFVVITIDTITRLDQPDSRGRQLQAALDHLRTNSVVRNRIDPNRMAVMGHSMGGGGALSAAANNTSLEAAIPLQGWHTRKNWSSVRTPTLVVGAQLDTIAPVSSHSEAFYNSLPSDLDKAYMELRGASHLVSNTPDTTTAKYSIAWLKRFVDDDLRYEQFLCPAPDDFAISEYRSTCPF | 22% |
| unnamed (protein) MANPYERGPDPTESSIEAVRGPFAVAQTTVSRLQADGFGGGTIYYPTDTSQGTFGAVAISPGYTAGQESIAWLGPRIASQGFVVITIDTITRLDQPDSRGRQLQAALDHLRTNSVVRNRIDPNRMAVMGHSMGGGGALSAAANNTSLEAAIPLQGWHTRKNWSSVRTPTLVVGAQLDTIAPVSSHSEAFYNSLPSDLDKAYMELRGASHLVSNTPDTTTAKYSIAWLKRFVDDDLRYEQFLCPAPDDFAISEYRSTCPF | 65% |
| unnamed (protein) MANPYERGPDPTESSIEAVRGPFAVAQTTVSRLQADGFGGGTIYYPTDTSQGTFGAVAISPGFTAGQESIAWLGPRIASQGFVVITIDTITRLDQPDSRGRQLQAALDHLRTNSVVRNRIDPNRMAVMGHSMGGGGALSAAANNTSLEAAIPLQGWHTRKNWSSVRTPTLVVGAQLDTIAPVSSHSEAFYNSLPSDLDKAYMELRGASHDVSNTPDTTTAKYSIAWLKRFVDDDLRYEQFLCPAPDDFAISEYRSTCPF | 66% |
| unnamed (protein) MANPYERGPDPTESSIEAVRGPFAVAQTTVSRLQADGFGGGTIYYPTDTSQGTFGAVAISPGFTAGQESIAWLGPRIASQGFVVITIDTITRLDQPDSRGRQLQAALDHLRTNSVVRNRIDPNRMAVMGHSMGGGGALSAAANNTSLEAAIPLQGWHTRKNWSSVRTPTLVVGAQLDTIAPVSSHSEAFYNSLPSDLDKAYMELRGASHVVSNTPDTTTAKYSIAWLKRFVDDDLRYEQFLCPAPDDFAISEYRSTCPF | 61% |
| unnamed (protein) MANPYERGPDPTESSIEAVRGPFAVAQTTVSRLQADGFGGGTIYYPTDTSQGTFGAVAISPGFTAGQESIAWLGPRIASQGFVVITIDTITRLDQPDSRGRQLQAALDHLRTNSVVRNRIDPNRMAVMGHSMGGGGALSAAANNTSLEAAIPLQGWHTRKNWSSVRTPTLVVGAQLDTIAPVSSHSEAFYNSLPSDLDKAYMELRGASHPVSNTPDTTTAKYSIAWLKRFVDDDLRYEQFLCPAPDDFAISEYRSTCPF | 16% |
| unnamed (protein) MANPYERGPDPTESSIEAVRGPFAVAQTTVSRLQADGFGGGTIYYPTDTSQGTFGAVAISPGFTAGQESIAWLGPRIASQGFVVITIDTITRFDYPDSRGRQLQAALDHLRTNSVVRNRIDPNRMAVMGHSMGGGGALSAAANNTSLEAAIPLQGWHTRKNWSSVRTPTLVVGAQLDTIAPVSSHSEAFYNSLPSDLDKAYMELCGASHLVSNTPDTTTAKYSIAWLKRFVDDDLRYEQFLCPAPDDFAICEYRSTCPF | 70% |
| unnamed (protein) MANPYERGPDPTESSIEAVRGPFAVAQTTVSRLQADGFGGGTIYYPTDTSQGTFGAVAISPGFTAGQESIAWLGPRIASQGFVVITIDTITRLDQPDSRGRQLQAALDHLRTNSVVRNRIDPNRMAVMGHSMGGGGALSAAANNTSLEAAIPLQGWHTRKNWSSVRTPTLVVGAQLDTIAPVSSHSEAFYNSLPSDLDKAYMELRGASHEVSNTPDTTTAKYSIAWLKRFVDDDLRYEQFLCPAPDDFAISEYRSTCPF | 6% |
| unnamed (protein) MANPYERGPDPTESSIEAVRGPFAVAQTTVSRLQADGFGGGTIYYPTDTSQGTFGAVAISPGFTAGQESIAWLGPRIASQGFVVITIDTITRLDQPDSRGRQLQAALDHLRTNSVVRNRIDPNRMAVMGHSMGGGGALSAAANNTSLEAAIPLQGWHTRKNWSSVRTPTLVVGAQLDTIAPVSSHSEAFYNSLPSDLDKAYMELRGASHHVSNTPDTTTAKYSIAWLKRFVDDDLRYEQFLCPAPDDFAISEYRSTCPF | 54% |
| unnamed (protein) MANPYERGPDPTESSIEAVRGPFAVAQTTVSRLQADGFGGGTIYYPTDTSQGTFGAVAISPGFTAGQESIAWLGPRIASQGFVVITIDTITRLDQPDSRGRQLQAALDHLRTNSVVRNRIDPNRMAVMGHSMGGGGALSAAANNTSLEAAIPLQGWHTRKNWSSVRTPTLVVGAQLDTIAPVSSHSEAFYNSLPSDLDKAYMELRGASHCVSNTPDTTTAKYSIAWLKRFVDDDLRYEQFLCPAPDDFAISEYRSTCPF | 8% |
| unnamed (protein) MANPYERGPDPTESSIEAVRGPFAVAQTTVSRLQADGFGGGTIYYPTDTSQGTFGAVAISPGFTAGQESIAWLGPRIASQGFVVITIDTITRLDQPDSRGRQLQAALDHLRTNSVVRNRIDPNRMAVMGHSMGGGGALSAAANNTSLEAAIPLQGWHTRKNWSSVRTPTLVVGAQLDTIAPVSSHSEAFYNSLPSDLDKAYMELRGASHFVSNTPDTTTAKYSIAWLKRFVDDDLRYEQFLCPAPDDFAISEYRSTCPF | 58% |
| unnamed (protein) MANPYERGPDPTESSIEAVRGPFAVAQTTVSRLQADGFGGGTIYYPTDTSQGTFGAVAISPGFTAGQESIAWLGPRIASQGFVVITIDTITRLDQPDSRGRQLQAALDHLRTNSVVRNRIDPNRMAVMGHSMGGGGALSAAANNTSLEAAIPLQGHHTRKNWSSVRTPTLVVGAQLDTIAPVSSHSEAFYNSLPSDLDKAYMELRGASHLVSNTPDTTTAKYSIAWLKRFVDDDLRYEQFLCPAPDDFAISEYRSTCPF | 1% |
| unnamed (protein) MANPYERGPDPTESSIEAVRGPFAVAQTTVSRLQADGFGGGTIYYPTDTSQGTFGAVAISPGFTAGQESIAWLGPRIASQGFVVITIDTITRLDQPDSRGRQLQAALDHLRTNSVVRNRIDPNRMAVMGHSMGGGGALSAAANNTSLEAAIPLQGFHTRKNWSSVRTPTLVVGAQLDTIAPVSSHSEAFYNSLPSDLDKAYMELRGASHLVSNTPDTTTAKYSIAWLKRFVDDDLRYEQFLCPAPDDFAISEYRSTCPF | 8% |
| unnamed (protein) MANPYERGPDPTESSIEAVRGPFAVAQTTVSRLQADGFGGGTIYYPTDTSQGTFGAVAISPGFTAGQESIAWLGPRIASQGFVVITIDTITRLDQPDSRGRQLQAALDHLRTNSVVRNRIDPNRMAVMGHSMGGGGALSAAANNTSLEAAIPLQGWHTRKNWSSVRTPTLVVGAQLDTIAPVSSHSEAFYNSLPSDLDKAYMELRGASHRVSNTPDTTTAKYSIAWLKRFVDDDLRYEQFLCPAPDDFAISEYRSTCPF | 95% |
| unnamed (protein) MANPYERGPDPTESSIEAVRGPFAVAQTTVSRLQADGFGGGTIYYPTDTSQGTFGAVAISPGFTAGQESIAWLGPRIASQGFVVITIDTITRLDQPDSRGRQLQAALDHLRTNSVVRNRIDPNRMAVMGHSMGGGGALSAAANNTSLEAAIPLQGWHTRKNWSSVRTPTLVVGAQLDTIAPVSSHSEAFYNSLPSDLDKAYMELRGASHQVSNTPDTTTAKYSIAWLKRFVDDDLRYEQFLCPAPDDFAISEYRSTCPF | 94% |
| unnamed (protein) MANPYERGPDPTESSIEAVRGPFAVAQTTVSRLQADGFGGGTIYYPTDTSQGTFGAVAISPGFTAGQESIAWLGPRIASQGFVVITIDTITRLDQPDSRGRQLQAALDHLRTNSVVRNRIDPNRMAVMGHSMGGGGALSAAANNTSLEAAIPLQGWHTRKNWSSVRTPTLVVGAQLDTYAPVSSHSEAFYNSLPSDLDKAYMELRGASHLVSNTPDTTTAKYSIAWLKRFVDDDLRYEQFLCPAPDDFAISEYRSTCPF | 26% |
| unnamed (protein) MANPYERGPDPTESSIEAVRGPFAVAQTTVSRLQADGFGGGTIYYPTDTSQGTFGAVAISPGFTAGQESIAWLGPRIASQGFVVITIDTITRLDQPDSRGRQLQAALDHLRTNSVVRNRIDPNRMAVMGHSMGGGGALSAAANNTSLEAAIPLQGAHTRKNWSSVRTPTLVVGAQLDTIAPVSSHSEAFYNSLPSDLDKAYMELRGASHLVSNTPDTTTAKYSIAWLKRFVDDDLRYEQFLCPAPDDFAISEYRSTCPF | 5% |

Source: the PETadex activity labels (doi:10.1021/acscatal.2c02275)
